Biological target: triadin (rabbit) (UniProt Q28820)
Assay: co-IP

Sequence of triadin (rabbit) (Q28820 whole entry): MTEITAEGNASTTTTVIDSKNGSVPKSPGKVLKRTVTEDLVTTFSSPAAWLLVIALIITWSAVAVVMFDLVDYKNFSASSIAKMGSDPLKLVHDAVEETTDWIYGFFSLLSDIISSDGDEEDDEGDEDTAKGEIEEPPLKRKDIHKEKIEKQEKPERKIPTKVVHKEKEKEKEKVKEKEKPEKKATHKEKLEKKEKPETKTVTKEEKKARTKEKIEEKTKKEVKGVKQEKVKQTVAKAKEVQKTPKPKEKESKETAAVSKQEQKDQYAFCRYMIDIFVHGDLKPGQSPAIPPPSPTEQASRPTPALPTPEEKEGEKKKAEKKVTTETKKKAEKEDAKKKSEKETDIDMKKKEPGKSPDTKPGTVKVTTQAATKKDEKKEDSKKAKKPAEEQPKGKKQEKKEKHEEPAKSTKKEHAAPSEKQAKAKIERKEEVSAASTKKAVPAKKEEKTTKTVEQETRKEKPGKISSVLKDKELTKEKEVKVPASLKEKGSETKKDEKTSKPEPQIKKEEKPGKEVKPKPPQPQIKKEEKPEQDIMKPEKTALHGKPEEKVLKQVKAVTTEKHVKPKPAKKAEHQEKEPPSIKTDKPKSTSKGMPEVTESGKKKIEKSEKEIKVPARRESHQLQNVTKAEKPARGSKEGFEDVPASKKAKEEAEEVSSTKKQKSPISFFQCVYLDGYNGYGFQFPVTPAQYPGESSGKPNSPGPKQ

percent reduction in triadin binding against WT RyR1: 50%
Substance: RyR1 D4878A/D4907A, P11716 1-5037 (natural protein)

Reference: article PMC2151650
